Data from patent US20060039900A1 (Janssen / Centocor, published 2006).

T1: murine tissue factor from murine brain extracts (murine, UniProt P20352 29-294)
T1 sequence (looked up): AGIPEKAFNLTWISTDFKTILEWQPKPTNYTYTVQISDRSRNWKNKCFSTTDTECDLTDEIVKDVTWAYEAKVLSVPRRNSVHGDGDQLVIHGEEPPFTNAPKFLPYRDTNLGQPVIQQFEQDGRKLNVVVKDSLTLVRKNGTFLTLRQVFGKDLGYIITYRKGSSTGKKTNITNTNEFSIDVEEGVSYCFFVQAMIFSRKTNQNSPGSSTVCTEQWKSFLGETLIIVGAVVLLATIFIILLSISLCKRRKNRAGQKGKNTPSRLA

T2: murine tissue factor on B6F10 melanoma cells (murine, UniProt P20352 29-294)
T2 construct: whole, on cells; also called cell-associated mTF
T2 sequence (looked up): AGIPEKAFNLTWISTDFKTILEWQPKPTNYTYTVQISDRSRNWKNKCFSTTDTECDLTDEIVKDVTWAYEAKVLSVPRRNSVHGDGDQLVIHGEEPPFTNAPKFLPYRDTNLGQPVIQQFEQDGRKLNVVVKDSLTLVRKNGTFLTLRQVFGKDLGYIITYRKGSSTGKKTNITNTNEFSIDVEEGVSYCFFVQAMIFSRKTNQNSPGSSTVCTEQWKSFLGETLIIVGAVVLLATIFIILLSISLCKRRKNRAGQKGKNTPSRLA


Tests used:
[1] = target: T1, murine tissue factor from murine brain …; assay: cell-based or functional assay
[2] = target: T2, murine tissue factor on B6F10 melanoma …; assay: flow cytometry (FACS) on B6F10 melanoma cells expressing mTF

Row | EC50 Conc. (ug/ml) for human plasma (inhibition of fibrin clot formation, murine brain extracts as source of mTF) [1] | EC50 [2] | Binder
1 | 0.23 µg/mL | – | PHD126 Fab (Fab, V domains shown) VH: QVQLVQSGAEVKKPGESLKISCKGSYSFSNYWIGWVRQMPGKGLEWMGFIDPDDSDTNYSPSFQGQVTISADKSISTAYLQWSSLKASDTAMYYCARALYMQGGSFDSWGQGTLVTVSS VL: DIELTQPPSVSVAPGQTARISCSGDNLGSYYVSWYQQKPGQAPVLVIYRDTDRPSGIPERFSGSNSGNTATLTISGTQAEDEADYYCQSYDYGVSNQVFGGGTKLTVLG
2 | 0.82 µg/mL | 4.35 nM | PHD127 Fab (Fab, V domains shown, Human Fab from the HuCAL library) VH: QVQLVQSGAEVKKPGESLKISCKGSYSFTNSWISWVRQMPGKGLEWMGIIDPDDSYTSYSPSFQGQVTISADKSISTAYLQWSSLKASDTAMYYCARGAGYGRMFGDVWGQGTLVTVSS VL: DIELTQPPSVSVAPGQTARISCSGDNLGSYYASWYQQKPGQAPVLVIYQDDNRPSGIPERFSGSNSGNTATLTISGTQAEDEADYYCGAYTYSTSWVFGGGTKLTVLG
3 | 63.3 µg/mL | – | PHD103 Fab (Fab, V domains shown) VH: QVQLVQSGAEVKKPGESLKISCKGSGYSFSNSWIAWVRQMPGKGLEWMGGIIGPGHSYTKYSPSFQGQVTISADKSISTAYLQWSSLKASDTAMYYCARINMGYFDYWGQGTLVTVSS VL: DIELTQPPSVSVAPGQTARISCSGDSLGLKKFVSWYQQKPGQAPVLVIYDDSNRPSGIPERFSGSNSGNTATLTISGTQAEDEADYYCGTYDQTIGHDVVFGGGTKLTVLG
4 | 23.8 µg/mL | – | PHD104 Fab (Fab, V domains shown) VH: QVQLVQSGAEVKKPGESLKISCKGSYSFTSNWIGWVRQMPGKGLEWMGWIYPSDSMTRYSPSFQGQVTISADKSISTAYLQWSSLKASDTAMYYCARYLFGLFDNWGQGTLVTVSS VL: DIELTQPPSVSVAPGQTARISCSGDNLGSYYVSWYQQKPGQAPVLVIYNDNNRPSGIPERFSGSNSGNTATLTISGTQAEDEADYYCATYDSSTDVFGGGTKLTVLG
